Experiment [1] concerns the target GFP-250, a chimera of GFP with the cytosolic protein p115. Description: co-IP.
The target in experiment [2] is recombinant GRP78 (19-654) Cys420 to Ala mutant (human, UniProt P11021 19-654, Cys420 (Cys to Ala)). Nature of the experiment: cross-linking.
In experiment [3] the target is recombinant GRP78 (19-654) Cys41 to Ala mutant (human, UniProt P11021 19-654, Cys41 (Cys to Ala)). Description: cross-linking.

The values that follow come from article PMC3582359 (Molecular cell, 2012).

In the case of “GRP78 (glucose-regulated protein 78), endogenous in mouse embryonic fibroblasts (from UniProt P20029 20-655) (natural protein)”, the fold more GFP-250 interacting with GRP78 in WT MEFs than in NPGPx-/- MEFs in experiment [1] turned out to be 3 fold.

B1: oxidized recombinant NPGPx (19-187) (natural protein, human, UniProt Q96SL4 19-187, looked up)
chain: AQQEQDFYDFKAVNIRGKLVSLEKYRGSVSLVVNVASECGFTDQHYRALQQLQRDLGPHHFNVLAFPCNQFGQQEPDSNKEIESFARRTYSVSFPMFSKIAVTGTGAHPAFKYLAQTSGKEPTWNFWKYLVAPDGKVVGAWDPTVSVEEVRPQITALVRKLILLKREDL
modifications: single disulfide bond between Cys57 and Cys86
Consider B1, for which the binding result in experiment [2] and in experiment [3] was “binds” each time.
